# Experimental data: paper PMC4351158 (Structure (London, England : 1993), 2015)
# Biological target: the molecule itself
# Assay: crystal structure
protein,measurement,value
"wild-type DegS (residues 27-355, without the membrane anchor) (enzyme, E. coli, UniProt P0AEE3 27-355, looked up) RSLNPLSTPQFDSTDETPASYNLAVRRAAPAVVNVYNRGLNTNSHNQLEIRTLGSGVIMDQRGYIITNKHVINDADQIIVALQDGRVFEALLVGSDSLTDLAVLKINATGGLPTIPINARRVPHIGDVVLAIGNPYNLGQTITQGIISATGRIGLNPTGRQNFLQTDASINHGNSGGALVNSLGELMGINTLSFDKSNDGETPEGIGFAIPFQLATKIMDKLIRDGRVIRGYIGIGGREIAPLHAQGGGIDQLQGIVVNEVSPDGPAANAGIQVNDLIISVDNKPAISALETMDQVAEIRPGSVIPVVVMRDDKQLTLQVTIQEYPATN",binding result,binds
